Experimental data: patent US5831013, “Capsid polypeptides and use to inhibit viral packaging” (The Research Foundation of State University of New York, dated 1998)

Molecular target: T1, ScVLa capsid protein Cap, full size (697 amino acids) (ScVLa virus of Saccharomyces cerevisiae)
T1 chain: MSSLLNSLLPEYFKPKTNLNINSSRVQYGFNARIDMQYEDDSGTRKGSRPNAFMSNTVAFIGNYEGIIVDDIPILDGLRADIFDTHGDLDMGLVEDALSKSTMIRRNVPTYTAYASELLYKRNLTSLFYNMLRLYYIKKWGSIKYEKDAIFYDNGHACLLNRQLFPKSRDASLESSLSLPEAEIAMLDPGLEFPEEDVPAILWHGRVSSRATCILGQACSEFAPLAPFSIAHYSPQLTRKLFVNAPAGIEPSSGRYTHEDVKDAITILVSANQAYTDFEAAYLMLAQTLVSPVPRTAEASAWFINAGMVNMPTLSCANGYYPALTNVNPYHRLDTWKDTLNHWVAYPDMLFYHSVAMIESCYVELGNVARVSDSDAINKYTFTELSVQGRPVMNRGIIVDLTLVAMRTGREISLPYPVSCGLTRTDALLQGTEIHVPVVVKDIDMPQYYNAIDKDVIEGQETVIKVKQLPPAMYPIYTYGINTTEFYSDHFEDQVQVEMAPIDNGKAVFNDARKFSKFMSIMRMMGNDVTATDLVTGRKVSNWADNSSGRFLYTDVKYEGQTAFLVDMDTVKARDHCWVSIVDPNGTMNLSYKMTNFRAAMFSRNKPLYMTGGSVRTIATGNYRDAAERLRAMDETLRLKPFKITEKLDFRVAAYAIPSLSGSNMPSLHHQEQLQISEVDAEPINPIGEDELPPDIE
Assay: cell-based or functional assay

Row | Binder | Curing (%) of ScVLa [%]
1 | La Cap N-terminal fragment of pGLa1d1 (aa 1-502) (other) MSSLLNSLLPEYFKPKTNLNINSSRVQYGFNARIDMQYEDDSGTRKGSRPNAFMSNTVAFIGNYEGIIVDDIPILDGLRADIFDTHGDLDMGLVEDALSKSTMIRRNVPTYTAYASELLYKRNLTSLFYNMLRLYYIKKWGSIKYEKDAIFYDNGHACLLNRQLFPKSRDASLESSLSLPEAEIAMLDPGLEFPEEDVPAILWHGRVSSRATCILGQACSEFAPLAPFSIAHYSPQLTRKLFVNAPAGIEPSSGRYTHEDVKDAITILVSANQAYTDFEAAYLMLAQTLVSPVPRTAEASAWFINAGMVNMPTLSCANGYYPALTNVNPYHRLDTWKDTLNHWVAYPDMLFYHSVAMIESCYVELGNVARVSDSDAINKYTFTELSVQGRPVMNRGIIVDLTLVAMRTGREISLPYPVSCGLTRTDALLQGTEIHVPVVVKDIDMPQYYNAIDKDVIEGQETVIKVKQLPPAMYPIYTYGINTTEFYSDHFEDQVQVEMAPI | 100
2 | La Cap N-terminal fragment of pGLa1d2 (aa 1-476) (other) MSSLLNSLLPEYFKPKTNLNINSSRVQYGFNARIDMQYEDDSGTRKGSRPNAFMSNTVAFIGNYEGIIVDDIPILDGLRADIFDTHGDLDMGLVEDALSKSTMIRRNVPTYTAYASELLYKRNLTSLFYNMLRLYYIKKWGSIKYEKDAIFYDNGHACLLNRQLFPKSRDASLESSLSLPEAEIAMLDPGLEFPEEDVPAILWHGRVSSRATCILGQACSEFAPLAPFSIAHYSPQLTRKLFVNAPAGIEPSSGRYTHEDVKDAITILVSANQAYTDFEAAYLMLAQTLVSPVPRTAEASAWFINAGMVNMPTLSCANGYYPALTNVNPYHRLDTWKDTLNHWVAYPDMLFYHSVAMIESCYVELGNVARVSDSDAINKYTFTELSVQGRPVMNRGIIVDLTLVAMRTGREISLPYPVSCGLTRTDALLQGTEIHVPVVVKDIDMPQYYNAIDKDVIEGQETVIKVKQLPPAMYPI | 100
3 | La Cap N-terminal fragment of pGLa1d4 (aa 1-428) (other) MSSLLNSLLPEYFKPKTNLNINSSRVQYGFNARIDMQYEDDSGTRKGSRPNAFMSNTVAFIGNYEGIIVDDIPILDGLRADIFDTHGDLDMGLVEDALSKSTMIRRNVPTYTAYASELLYKRNLTSLFYNMLRLYYIKKWGSIKYEKDAIFYDNGHACLLNRQLFPKSRDASLESSLSLPEAEIAMLDPGLEFPEEDVPAILWHGRVSSRATCILGQACSEFAPLAPFSIAHYSPQLTRKLFVNAPAGIEPSSGRYTHEDVKDAITILVSANQAYTDFEAAYLMLAQTLVSPVPRTAEASAWFINAGMVNMPTLSCANGYYPALTNVNPYHRLDTWKDTLNHWVAYPDMLFYHSVAMIESCYVELGNVARVSDSDAINKYTFTELSVQGRPVMNRGIIVDLTLVAMRTGREISLPYPVSCGLTRTDAL | 50
4 | La Cap N-terminal fragment of pGLa1d5 (aa 1-418) (other) MSSLLNSLLPEYFKPKTNLNINSSRVQYGFNARIDMQYEDDSGTRKGSRPNAFMSNTVAFIGNYEGIIVDDIPILDGLRADIFDTHGDLDMGLVEDALSKSTMIRRNVPTYTAYASELLYKRNLTSLFYNMLRLYYIKKWGSIKYEKDAIFYDNGHACLLNRQLFPKSRDASLESSLSLPEAEIAMLDPGLEFPEEDVPAILWHGRVSSRATCILGQACSEFAPLAPFSIAHYSPQLTRKLFVNAPAGIEPSSGRYTHEDVKDAITILVSANQAYTDFEAAYLMLAQTLVSPVPRTAEASAWFINAGMVNMPTLSCANGYYPALTNVNPYHRLDTWKDTLNHWVAYPDMLFYHSVAMIESCYVELGNVARVSDSDAINKYTFTELSVQGRPVMNRGIIVDLTLVAMRTGREISLPYPV | < 10
5 | La Cap N-terminal fragment of pGLa1d6 (aa 1-401) (other) MSSLLNSLLPEYFKPKTNLNINSSRVQYGFNARIDMQYEDDSGTRKGSRPNAFMSNTVAFIGNYEGIIVDDIPILDGLRADIFDTHGDLDMGLVEDALSKSTMIRRNVPTYTAYASELLYKRNLTSLFYNMLRLYYIKKWGSIKYEKDAIFYDNGHACLLNRQLFPKSRDASLESSLSLPEAEIAMLDPGLEFPEEDVPAILWHGRVSSRATCILGQACSEFAPLAPFSIAHYSPQLTRKLFVNAPAGIEPSSGRYTHEDVKDAITILVSANQAYTDFEAAYLMLAQTLVSPVPRTAEASAWFINAGMVNMPTLSCANGYYPALTNVNPYHRLDTWKDTLNHWVAYPDMLFYHSVAMIESCYVELGNVARVSDSDAINKYTFTELSVQGRPVMNRGIIVDL | < 10
6 | La Cap fragment of pGLa1d7 (aa 6-443) (other) NSLLPEYFKPKTNLNINSSRVQYGFNARIDMQYEDDSGTRKGSRPNAFMSNTVAFIGNYEGIIVDDIPILDGLRADIFDTHGDLDMGLVEDALSKSTMIRRNVPTYTAYASELLYKRNLTSLFYNMLRLYYIKKWGSIKYEKDAIFYDNGHACLLNRQLFPKSRDASLESSLSLPEAEIAMLDPGLEFPEEDVPAILWHGRVSSRATCILGQACSEFAPLAPFSIAHYSPQLTRKLFVNAPAGIEPSSGRYTHEDVKDAITILVSANQAYTDFEAAYLMLAQTLVSPVPRTAEASAWFINAGMVNMPTLSCANGYYPALTNVNPYHRLDTWKDTLNHWVAYPDMLFYHSVAMIESCYVELGNVARVSDSDAINKYTFTELSVQGRPVMNRGIIVDLTLVAMRTGREISLPYPVSCGLTRTDALLQGTEIHVPVVVKDI | < 10
7 | La Cap fragment of pGLa1d8 (aa 98-443) (other) LSKSTMIRRNVPTYTAYASELLYKRNLTSLFYNMLRLYYIKKWGSIKYEKDAIFYDNGHACLLNRQLFPKSRDASLESSLSLPEAEIAMLDPGLEFPEEDVPAILWHGRVSSRATCILGQACSEFAPLAPFSIAHYSPQLTRKLFVNAPAGIEPSSGRYTHEDVKDAITILVSANQAYTDFEAAYLMLAQTLVSPVPRTAEASAWFINAGMVNMPTLSCANGYYPALTNVNPYHRLDTWKDTLNHWVAYPDMLFYHSVAMIESCYVELGNVARVSDSDAINKYTFTELSVQGRPVMNRGIIVDLTLVAMRTGREISLPYPVSCGLTRTDALLQGTEIHVPVVVKDI | < 10
8 | La Cap N-terminal fragment of nonsense mutant pGLa1m3 (K506O, aa 1-505) (other) MSSLLNSLLPEYFKPKTNLNINSSRVQYGFNARIDMQYEDDSGTRKGSRPNAFMSNTVAFIGNYEGIIVDDIPILDGLRADIFDTHGDLDMGLVEDALSKSTMIRRNVPTYTAYASELLYKRNLTSLFYNMLRLYYIKKWGSIKYEKDAIFYDNGHACLLNRQLFPKSRDASLESSLSLPEAEIAMLDPGLEFPEEDVPAILWHGRVSSRATCILGQACSEFAPLAPFSIAHYSPQLTRKLFVNAPAGIEPSSGRYTHEDVKDAITILVSANQAYTDFEAAYLMLAQTLVSPVPRTAEASAWFINAGMVNMPTLSCANGYYPALTNVNPYHRLDTWKDTLNHWVAYPDMLFYHSVAMIESCYVELGNVARVSDSDAINKYTFTELSVQGRPVMNRGIIVDLTLVAMRTGREISLPYPVSCGLTRTDALLQGTEIHVPVVVKDIDMPQYYNAIDKDVIEGQETVIKVKQLPPAMYPIYTYGINTTEFYSDHFEDQVQVEMAPIDNG | 100
9 | La Cap N-terminal fragment of nonsense mutant pGLa1m4 (I443O, aa 1-442) (other) MSSLLNSLLPEYFKPKTNLNINSSRVQYGFNARIDMQYEDDSGTRKGSRPNAFMSNTVAFIGNYEGIIVDDIPILDGLRADIFDTHGDLDMGLVEDALSKSTMIRRNVPTYTAYASELLYKRNLTSLFYNMLRLYYIKKWGSIKYEKDAIFYDNGHACLLNRQLFPKSRDASLESSLSLPEAEIAMLDPGLEFPEEDVPAILWHGRVSSRATCILGQACSEFAPLAPFSIAHYSPQLTRKLFVNAPAGIEPSSGRYTHEDVKDAITILVSANQAYTDFEAAYLMLAQTLVSPVPRTAEASAWFINAGMVNMPTLSCANGYYPALTNVNPYHRLDTWKDTLNHWVAYPDMLFYHSVAMIESCYVELGNVARVSDSDAINKYTFTELSVQGRPVMNRGIIVDLTLVAMRTGREISLPYPVSCGLTRTDALLQGTEIHVPVVVKD | 100
10 | La Cap N-terminal fragment of nonsense mutant pGLa1m5 (S419O, aa 1-418) (other) MSSLLNSLLPEYFKPKTNLNINSSRVQYGFNARIDMQYEDDSGTRKGSRPNAFMSNTVAFIGNYEGIIVDDIPILDGLRADIFDTHGDLDMGLVEDALSKSTMIRRNVPTYTAYASELLYKRNLTSLFYNMLRLYYIKKWGSIKYEKDAIFYDNGHACLLNRQLFPKSRDASLESSLSLPEAEIAMLDPGLEFPEEDVPAILWHGRVSSRATCILGQACSEFAPLAPFSIAHYSPQLTRKLFVNAPAGIEPSSGRYTHEDVKDAITILVSANQAYTDFEAAYLMLAQTLVSPVPRTAEASAWFINAGMVNMPTLSCANGYYPALTNVNPYHRLDTWKDTLNHWVAYPDMLFYHSVAMIESCYVELGNVARVSDSDAINKYTFTELSVQGRPVMNRGIIVDLTLVAMRTGREISLPYPV | < 10
11 | MSSLLNSLLP [La Cap N-terminal fragment of nonsense mutant pGLa1m6 (E11O, aa 1-10)] | < 10
